Measurements taken from patent publication US20240424125A1.

How the values were obtained:
[1] = molecular target: human FRα on cells (human) (UniProt P15328); assay: flow cytometry on JEG-3 cells (endogenous FRα), negative control; design: unit not given here
[2] = molecular target: human FRα on cells (human) (UniProt P15328); assay: flow cytometry on IGROV-1 cells (endogenous FRα), negative control; design: unit not given here

Chain of human FRα on cells (human) (P15328 25-234 limits assumed): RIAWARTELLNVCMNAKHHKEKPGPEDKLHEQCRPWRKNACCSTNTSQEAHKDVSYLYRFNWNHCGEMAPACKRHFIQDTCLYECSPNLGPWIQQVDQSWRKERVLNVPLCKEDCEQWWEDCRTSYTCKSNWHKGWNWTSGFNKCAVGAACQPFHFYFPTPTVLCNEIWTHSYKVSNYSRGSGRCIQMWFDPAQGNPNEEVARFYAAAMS

Bmax [1]: 144
Bmax [2]: 208
Substance: Human IgG (antibody)
